From the DeepSol protein solubility set come the findings set out here.

This series in a line: soluble on expression in E. coli; label from the status in PepcDB or PDB records.
“MKTTTATNSILFKLYFAPGATEQISIEYYNLQQLIEKLELKLGELGLNFNVVFWKNDKGNLISMSQNAQRVLKKMANRDSASIFVIADSDSSDSSSDSSDSGDEDVIIADAPEVAPHRRHCGRRDRSRSRGFDRSRSRSRSRSNFHDHHKRHQMKKLMWKRFQESHGHPEFKRRHCFGGRRARSASPIGRRPCREGEEFKRHPLGSFGTPCGREEFEGPTGGFGRPFGRRGMDHHGFNFHRHHHPFGAFHGFGGHHHGFGHGFGHHGFKRQHPFERRFGRC”: the “soluble on expression in E. coli” value is given as “not soluble”.
To “MVLETTSSRDGEIKLTVDQMLGKLARWIRLMGYDVYYPSGTVPDDEIITKSRSEGRIIITRDYGMYQKYPMSIFEPYDDINDQLRDFIAHFSSRMKDRFMRCPVCNGRLVKLRSKIPEYLRNHRDVYICTGCHKMYWKGSHYRRIYRKIENLRPKGE” belongs “soluble”; to “ELPKKRELCKFYITGFCARAENCPYMHGDFPCKLYHTTGNCINGDDCMFSHDPLTEETRELLDKMLADDAEAGAEDEKEVEELKK”, “soluble”.
As for “MGSDKIHHHHHHDAGAPAFLSAGRVADGAYNLYGLDRRGRPLFHLPIPDRGHAAAAHPQRAEAVAFARRPGRFALVLNCVSGAEIARLSAPEGRHFYGHGAFDAEGRVLFTTENDYEAGQGRIGLWDAGAGYRRIGEVASGGVGPHDIRLMPDGQTLVVANGGVETHPDTGRVKLNLPVMQPNLSYLSLAGEVLEVVRMPPEHRMNSIRHLDLRADGLVAFAMQWQGEGTELRPVLGLHRRGTAPVAVTGNEAEMRAMNGYGGSVIFYDQGRRVAVSSPRGGIVQLSDVAAGRIIGGVAITDVCGLGVTGGGLVASSGSGVFTRVGGKEASRSEIAWDNHLVAVNRA”, the “soluble on expression in E. coli” value is on record as “not soluble”.
“MTNLMSALSKLSQALDSKNIGEVLLALQNFDEEFSAEKCEDVFVRCLQEIISWDLTVSLEISETVVRQMMNRLENQAVLEEMCNYIIKQQSSVTVEIAVEIMIEHGWILRTDDCREVWKQIESAKNTEKIEILARRMTANCRILRLSGAPKRFLEKLLKDVIISLNANKVNIPMKFLNELAIVSPFHPILVIEDFKKDSEYFYIPHVVSEETRFHLEVKEFTNFFQIESTYHKEQACQMLQVFNQIYKRMELIPQLEAPEIDKIVEFWLAALRIFNGYGIGMNDITESAKLLEKTASRYSLKSRPLFLKHFLKKISEKKDTNIGLEPQVVATIITTYQRNAFGLRSPEFYEELGEFWALCLKIKYDDVYFATVYFSAVFALAQAQAVFKIKKELCREVYHKILQPMHEQLVDFVKLKQVESNKATSEEEVMRLEHQNIGASYFSILTCTYKNAEDRILEFMKEN”: the “soluble on expression in E. coli” value was “not soluble”.
The same measure for “MGSDKIHHHHHHMKNNKNEKLKITIVSGFLGSGKTTFLTHYINELLKIDEKITVIMNEFGSFDVDGNHLSELVKVYPLLNGCVCCDMKSDLVQQIEMLSHNHETDHIIIEATGIAHPIELIMACQDPRIVQFVERPHVVSIVDALRFLQRQQYTDSTKRLMEEQLEVSDVLVVNKLDLISVEDRDALKNQLNEVNKYSSKIYTTYGQVNIEELSQFRDQLVMTHTHSHHHGINSMQYTFTTAIDRQLFYQFILRMPDNVLRLKGYVQFKDEPNVTYEFQYSFGMPDYEVINGDYPLTIVLIGEQLDVNRLKNKLDVLQFS”: “not soluble”; for “MKMDTGALTFQQKIYWLVKQIPLGRVATYGQIAALCGWPRHGRYVGYALYRVAPNSDIPWHRVVNAQGKISYAPQRRGTDELQRWRLAAEGIIFTAGDRINLRRYQWQPPATVYQQLIWPEGAATDSAKALEHHHHHH”: “soluble”.
Take “MIAQLPSELLSLQLPLRIRIGDAQAFDLGPDPQVTMVIRDPSLLTEITHPSLDALGKAYVEKRLDIEGPISQVIGIGDALSEALGEPDGGAPPVRESHDKDTDAEAIHYHYDLSNDFYQLWLDPEMVYSCAYFETGKEDLATAQLAKLRHLCRKLRLQPGEKLLDVGCGWGGLARLAAREFGVEVTGITLSKEQLALGRERVKAEGLEDRVTLKLLDYRDLPRDGRFDKVVSVGMFEHVGHANLGLYFQQLYEAVRPGGLVMNHGITSRYTDGRPVGKGAGDFIDRYVFPHGELPHLSLAVARMSEAGLEVVDVESLRLHYARTLDFWSANLEARLKEAARLVPEETLRIWRLYLAGCAYGFKRGWINL”: the “soluble on expression in E. coli” value is reported as “not soluble”.
On to “MGSDKIHHHHHHMDNNTLDEYRAVYLTAEDLRLAASILYNAYHDDPFFVDTLSSSDKFAYEQKLRAAIREELNTLWQQKQALIGLFDGAHLMGVACVVTQKVPLGEGRYWHWRLKMLLGTGWQSTQAMMKKESTILELLPSQRCGILQFIALAPNEQGKGLGHQLVQAVVSWCDEQPNLEGIGVFTTQEAHTHLFKQHDFVSLGELVIGSVTGQLLFYTGQQDE”, for which the “soluble on expression in E. coli” value is “not soluble”.
For “GSSGSSGMEAVLNELVSVEDLKNFERKFQSEQAAGSVSKSTQFEYAWCLVRSKYNEDIRRGIVLLEELLPKGSKEEQRDYVFYLAVGNYRLKEYEKALKYVRGLLQTEPQNNQAKELERLIDKAMKKSGPSSG”, the “soluble on expression in E. coli” value is listed as “soluble”.
The same measure for “MGSDKIHHHHHHVVDSLQQWQEVEAVLADLSQASQEHHYRQTHRLVQDYLDRLQLSPREQQGLEPLLKSLERMQAKLEQQVLHIAVFGLVGRGKSSLLNALVGETVFETGAIHGVTTAIATAAWPLTTDEDGVQRLRWSGLGDVQVELIDTPGIDEIDGDQREALAKRVAQQADLILFVVSGDISQLEQDTLTVLHQAHKPLLLVLNKADQYSDRDREAIRNKLADERLRHLISIDEIVTVAAAPRQAEPEYDGDRLVGTKLVSLPPQVEPLRQRIITLLLHEGQSLLALNALLQMAMVDRQVVRRKLQSRDRQAEELIWRFAIAKGMAVAINPISFVDLLGGAAIDVALILQLSQLYDLPIGEGKAIALLRTIAVGMGSLGLGEGLVRVGLSALKGLMGVAAPVSGGLSLGVYVPVALTQAGIGGFATYAIGQVTKAYLANGADWGPEGAGLLTQQILDSLDEAAILQRLRGEIDRRLRLKQL”: “not soluble”; for “MGSDKIHHHHHHMASFIASDQDVKNFLTAPSMNDQEGIGFAYATDEAVLKALIPAPLKLMAPVVCGYVVHMGKPTFSAPYLEESLFALVSYKDKMMGAYPINLLLHGPGAESGVIAGREGAGIPKKLADDIELRRNDNSATATVERHGKTLLNVSWTAGELNDPSIMKQFAGQLALGKEAEMNSFFYKYDIDQHEDGTNHFSNVQLVATQLRSLADQVEPGNLSIQLESTDDDPFGELKVLKPLGAAWFHFDTSVMFNTLKLDEVDAATTMPKLLTGRYDRSFFNPKAATYII”: “not soluble”.
The same measure for “MNLNTPVEIPSGFTPISHAQQLLIMGSCFAENIGTLLAENKFRIDINPFGILYNPRSISMALREIISQKQYKASDLFLHRECWHSPMHHGSFSAATLADTLRNIQSRVEQAHKELKQLDRLMLTFGTAYVYEQKETGKVVANCHKLPEKNFIRRRLEIDEIVEDYTLLLDELISLNPQLKILFTVSPIRHIRDGMHANQLSKSVLLLAIDRLMQRYPQVTCYFPSYEIVLDELRDYRFYADDMVHPSTLTVNYLWERFSETFFTPETQSLIKECET”: “soluble”.
The same measure for “MRRNKRERQELLQQTIQATPFITDEELAGKFGVSIQTIRLDRLELSIPELRERIKNVAEKTLEDEVKSLSLDEVIGEIIDLELDDQAISILEIKQEHVFSRNQIARGHHLFAQANSLAVAVIDDELALTASADIRFTRQVKQGERVVAKAKVTAVEKEKGRTVVEVNSYVGEEIVFSGRFDMYRSKHSLEHHHHHH”: “soluble”; for “SSRSGTDPQQRQQASEADAAAATFRANDHQHIRYNPLQDEWVLVSAHRMKRPWQGQVEPQLLKTVPRHDPLNPLCPGAIRANGEVNPQYDSTFLFDNDFPALQPDAPSPGPSDHPLFQAKSARGVCKVMCFHPWSDVTLPLMSVPEIRAVVDAWASVTEELGAQYPWVQIFENKGAMMGCSNPHPHCQVWASSFLPDIAQREERSQQAYKSQHGEPLLMEYSRQELLRKERLVLTSEHWLVLVPFWATWPYQTLLLPRRHVRRLPELTPAERDDLASIMKKLLTKYDNLFETSFPYSMGWHGAPTGSEAGANWDHWQLHAHYYPPLLRSATVRKFMVGYEMLAQAQRDLTPEQAAERLRALPEVHYHLGQKDRETATIA”: “not soluble”.
For the sequence “RSTDTFNYATYHTLEEIYDFLDLLVAENPHLVSKIQIGNTYEGRPIYVLKFSTGGSKRPAIWIDTGIHSREWVTQASGVWFAKKITQDYGQDAAFTAILDTLDIFLEIVTNPDGFAFTHSTNRMWRKTRSHTAGSLCIGVDPNRNWDAGFGLSGASSNPCSETYHGKFANSEVEVKSIVDFVKDHGNIKAFISIHSYSQLLMYPYGYKTEPVPDQDELDQLSKAAVTALASLYGTKFNYGSIIKAIYQASGSTIDWTYSQGIKYSFTFELRDTGRYGFLLPASQIIPTAKETWLALLTIMEHTLNHP”, the “soluble on expression in E. coli” value is “soluble”.
In the case of “MSLFKKNFDIKDDRNLTMLVDFYELTMGNGYLNKNVGNKTAYFDMFFRRVPDNGGYCIMAGVQQLTEYLSNLRFTKEDIDYLRSKHEFSEEFLSYLKDFKFECDVWAVPEGNPVFPNEPLVTVKGPAIQAQFVETMILLTINHQTLIATKANRICRAAGNRPVMEFGSRRAQGYDGAIYGARAAVIGGCSSTACTISEQMFGVNAVGTMAHSWVQLFDNEFEAFKAWADVYPENCVLLVDTYNVLKSGLPNAIKVFDEVLKPKGIRPSGIRIDSGDITYLTKKCRKILDEAGYSDCKIVISNSLDEHIITDVLLQGAEVDSFGVGERLITAKSEPVFGGVFKLCAVENDEGNIVPKIKISENQEKITNPGFKKIYRLFDKETDKALADLITLNDEVIDETKPLEIFDPIYTWKKKKLTHYYVKDLRVQLFKKGELVYENPEVLEIRNIAKKETEKLWAEVLRLENPHTYYVDLSKKLWDLKHNLLEKYSNAEGHHHHHH”, the “soluble on expression in E. coli” value is reported as “soluble”.
In the case of “MTIPEQNNNPIVEISIPVSTQQALEKVNATKSAWLEARRQQKAAADNIATIRQRRAEMEATTNALNEEWRTLFRESQGVVSKEMKKLRTEIALGRETLEDFDELLAAQESENALLPQEAAELAGKYIHAHDTLVGIRAKQIWEDFMQSHGKALIQTLSLLKSTMGREASAVVGVVHSVNDPDTLLKDFIHKHITRPALTNDAMPEQDPVFKLAGVAPDYAARLDFSNKLSPAAMHKMKVRQERAEKEKAV”, the “soluble on expression in E. coli” value is given as “soluble”.
Regarding “MRGGMGNMQKMMKQMQKMQKDMAKAQEELAEKVVEGTAGGGMVTVKANGQKEILDVIIKEEVVDPEDIDMLQDLVLAATNEALKKVDEITNETMGQFTKGMNMPGLF”, the “soluble on expression in E. coli” value is given as “soluble”.
For “YPFYAQYNYDSPREATGKIVCANCHLAKKTVEIEVPQAVLPDTVFKAVVKVPYDLDIQQVQADGSPSGLNVGAVLMLPEGFKLAPPERVDEELMEEVGDFYYLVTPYSETDENILLAGPLPGEDYQEMIFPILSPNPATDAGVYFGKYSIHLGGNRGRGQVYPTGELSNNNAFSASIAGTIAAIEDNGFGFDVTIQPEDGDAVVTSILPGPELIVAVGDTVEAGQLLTTNPNVGGFGQMDSEIVLQSSS”, the “soluble on expression in E. coli” value is reported as “soluble”.
To “MTNPGDGAAGAVDCATLDHWRPRLAAIAAAAGQDDAAHDLGHLRRVWGAARAMLQAHPEADALVVLAASYLHDLVNLPKNHPERHLASRQAAAAARERLARAGFPAARLDAVAHAIEAHSFSAGIAPRTIEARIVQDADRLDALGPVGLARMFHVGGSLGRALAHPSDPLAAQRALDDSRYTLDHIEAKLARLPHGMQTEAGRRLGEQRLAWLRDFRAAFAAQWGGGQLRLEHHHHHH” belongs “soluble”.
